Data on 30 sequences can be found in the nanobody polyreactivity screen of Harvey et al. (2022).

A short description of the data set: yeast display, Sf9 membrane polyspecificity reagent, FACS + sequencing; frameworks hold sequencing errors. In a few lines:
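Nanobodies from a synthetic yeast display library (Saccharomyces cerevisiae BJ5465), induced 36–48 hours with galactose, were stained 1 hour at 4 °C with 10% biotinylated, detergent-solubilized Sf9 membrane reagent, enriched on streptavidin microbeads, then FACS-sorted. Anti-HA (expression) and streptavidin (reagent binding) fluorescence set low and high (top ~1%) gates. Polyreactivity labels come from the gate of origin. Genes were colony-PCR amplified, MiSeq 2 × 250 sequenced and filtered by CDR length.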
As for “QVQLVESGGGLVQAGGSLRLSCAASGRIFGHYAMGWYRQAPGKERELVAAIRYSAGRTYYAGSVKGRFTISRDNAKNTVYLQMNSLKPEDTAVYYCAKTSRYLTGGGDYWGQGTQVTVSS”, the “polyreactivity (PSR sort gate)” value was “high polyreactivity”.
As for “QVQLVESGGGLVQAGGSLRLSCAASGRIFGINAMGWYRQAPGKERELVAAITWSGDGTYYADSVKGRFTISRDNAKNTVYLQMNSLKPEDTAVYYCARYDYWGHGTQVTVSS”, the entry is “low polyreactivity”.
With “QVQLVESGGGLVQAGGSLRLSCAASGRIFGINAMGWYRQGPGKERELVAASRSSDVSTYNADSVKGRFTISRDNAKNTVYLQMNSLKPEDTAVYYCAAAYRTQIYRNEYWGQGTQVTVSS”, the “polyreactivity (PSR sort gate)” value was “low polyreactivity”.
Take “QVQLVESGGGLVQAGGSLRLSCAASGRIFGINVMGWYRQAPGKERELVARITGRGGRTYYADSVKGRFTISRDNAKNTVYLQMNSLKPEDTAVYYCNAQPSTTGTYDYWGQGTQVTVSS”: the “polyreactivity (PSR sort gate)” value is “high polyreactivity”.
Then “QVQLVESGGGLVQAGGSLRLSCAASGRIFGIYAMGWYRQAPGKERELVAAISYSGGSTYYADSVKGRFTISRDNAKNTVYLQMNSLNPEDTAVYYCNADYYASYYPYYSIRLDYWGQGTQVTVSS”, with “low polyreactivity”; and “QVQLVESGGGLVQAGGSLRLSCAASGRIFGIYAMGWYRQAPGKERELVAAISYSGGSTYYADSVKGRFTISRDNAKNTVYLQMNSMKPEDTAVYYCNADYYASYYPYYSIRLDYWGQGTQVTVSS”, with “low polyreactivity”.
For the sequence “QVQLVESGGGLVQAGGSLRLSCAASGRIFGIYAMGWYRQAPGKERELVATITDSDDSTYYADSVKGRFTISRDNAKNTVNLQMNSLKPEDTAVYYCATAFSYGGGAYDYWGQGTKVTVSS”, the “polyreactivity (PSR sort gate)” value is recorded as “low polyreactivity”.
With “QVQLVESGGGLVQAGGSLRLSCAASGRIFGKYAMGWYRQAPWKERELVATISLSGVRTYYADSVKGRFTISRDNAKNTVYLQMNSLKPEDTAVYYCAAGYSSNGDYWGQGTQVTVSS”, the “polyreactivity (PSR sort gate)” value was “low polyreactivity”.
In the case of “QVQLVESGGGLVQAGGSLRLSCAASGRIFGKYVMGWYRQAPGKERELVAAISSGGSTYADSVKGRFTISRDNAKNTFYLQMNCLKPEDTAVYYCNTRPRLYGYRPSQYTYDYWGQGTQVTVSS”, the “polyreactivity (PSR sort gate)” value is “high polyreactivity”.
For “QVQLVESGGGLVQAGGSLRLSCAASGRIFGLNAMGWYRQAPGKEREIVAAIRWRGGSTYYADSVKGLFTISRDNANNNVYLLMNSLKPEDTAVYYCAADRNLGVSRYGYWGQGTQVNVSS”, the “polyreactivity (PSR sort gate)” value is reported as “high polyreactivity”.
“QVQLVESGGGLVQAGGSLRLSCAASGRIFGLNAMGWYRQAPGKERELVAAISERDGSTYYADSVKGRFTISRDNAKNTVYLQMNSLKPEDTAVYYCAAEKPVHYVRGVHYDYWGQGTQVTVSS”: the “polyreactivity (PSR sort gate)” value is given as “low polyreactivity”.
For the sequence “QVQLVESGGGLVQAGGSLRLSCAASGRIFGLNAMGWYRQAPGKERELVAAISERDGSTYYADSVKGRFTISRDNAKNTVYLQMNSLKPEDTAVYYCAAVTPVHYVRGVHYDYWGQGTQVTVSS”, the “polyreactivity (PSR sort gate)” value was “low polyreactivity”.
Then “QVQLVESGGGLVQAGGSLRLSCAASGRIFGLNSLGWYRQAPGNEMELVAAIDIIGGSTYYADSVKGRFTISRDNAKNTVYLQMNSLKPEDTAVYYCAAEADFWRYVEYDYWGQGTQVTVSS”, with “low polyreactivity”; and “QVQLVESGGGLVQAGGSLRLSCAASGRIFGLYAMGWYRQAPGKERELVAAIRSSGGSTYYADSVKGRFTISRDNAQNTVYLQMISQKPDDTAVYYCAADGDEDGEYWGQGTQVTVSS”, with “low polyreactivity”; and “QVQLVESGGGLVQAGGSLRLSCAASGRIFGLYAMGWYRQAPGKERELVAAITLSGDGTDYADSVKGRFTISRDNAKNTVYLQMNSLKPEDTPVYYCAKVGQYWWNMDYWGQGTQVTVSS”, with “low polyreactivity”.
Consider “QVQLVESGGGLVQAGGSLRLSCAASGRIFGNNAMGWYRQAPGKERELVAAISWSARSTYADSVKGRFTISRDNAKNTVYLQMNSLKPEVTAVYYCNADSAARKGWPIYGYWGQGTKVTVSS”, for which the “polyreactivity (PSR sort gate)” value is listed as “high polyreactivity”.
As for “QVQLVESGGGLVQAGGSLRLSCAASGRIFGNYAMGWSRQAPGKERELVSAITYSTGGTSTYADSVKGLFTISRDNAKNSVYLQMNSLKPEDTAVYYCAVRRQYRRAYSFSQSRYDYWGQGTQVTVSS”, the entry is “high polyreactivity”.
In the case of “QVQLVESGGGLVQAGGSLRLSCAASGRIFGNYAMGWYRQAPGKERELVAAIRWSGGRTYYADSVKGRFTISRDTAKNTVYLQMNSLKPEDTAVYYCNAYGRYSYPTFDYWGQGTQVTVSS”, the “polyreactivity (PSR sort gate)” value is listed as “high polyreactivity”.
For the sequence “QVQLVESGGGLVQAGGSLRLSCAASGRIFGNYAMGWYRQAPGKESELVAAISGGGSTYYADSVKGRFTISRDNAKNTVYLQMNSLKPEDTAVYYCAARFLWSVFGRKGGYWGQGTQVTVSS”, the “polyreactivity (PSR sort gate)” value is listed as “low polyreactivity”.
Then “QVQLVESGGGLVQAGGSLRLSCAASGRIFGPNAMGWYRPAPGKERELVAAISTRDGSTSYADSVKGRFTISRDNAKNTVYLQMNSLKPEDTAVYYCAKRWPYWYRVTQYDNVDYWGQGTQVTVSS”, with “low polyreactivity”; and “QVQLVESGGGLVQAGGSLRLSCAASGRIFGPYAMGWYRQAPGKERELVATITWSGVSTYYADSVKGRFTISRDNAKNTVYLQMNSLKPEDTAVYYCNAKRTGQWFLHVPVYYWGQGTQVTVSS”, with “low polyreactivity”; and “QVQLVESGGGLVQAGGSLRLSCAASGRIFGPYAMGWYRQAPGTERELVAAIRASSSSTYYADSVKGRFTISRDNAKNTVYLQMNSLKPEDTAVYYCAADWYYGYAWKYGYWGQGTQVTVSS”, with “low polyreactivity”.
“QVQLVESGGGLVQAGGSLRLSCAASGRIFGPYTKGWYRQAPGKERELVATISYSGSTTYYADSVKGRFTISRDNAKNTVYLQMNSLKPEDTAVYYCAAYYWARRDWGQGTQVTVSS”: the “polyreactivity (PSR sort gate)” value is on record as “high polyreactivity”.
As for “QVQLVESGGGLVQAGGSLRLSCAASGRIFGPYTMGWYRPAPGKEREFVAAISRSGDSTYYADSVKGRFTISRDNAKNTVYLHMNSLKPADTAVYYCAAKYGTRLTAYYYWGQGTQVTVSS”, the “polyreactivity (PSR sort gate)” value is listed as “high polyreactivity”.
Turning to “QVQLVESGGGLVQAGGSLRLSCAASGRIFGQNAMGWYRQAPGKERELVAVITSRGTRTYYADSVKGRFTISRDNAKNTVYLQMNSLKPEDTAVYYCAADVYSDNYKTWPYDYWGQGTQVTVSS”, the “polyreactivity (PSR sort gate)” value was “low polyreactivity”.
With “QVQLVESGGGLVQAGGSLRLSCAASGRIFGQNTMGWYRQAPGKERELVAAITWNGGRTYYADSVKGRFTISRDNAKNTVYLQMNSLKPEDTAVYYCAARYSTYPWYNYWGQGTQVTVSS”, the “polyreactivity (PSR sort gate)” value is “high polyreactivity”.
As for “QVQLVESGGGLVQAGGSLRLSCAASGRIFGQNVMGWYIQAPGKERELVAAITSAGRTYYADSVKGRFTISRDIAKNTVYLQMKSLKPEDTAVYYCAAYVRRGFDWGQGTQVTVSS”, the “polyreactivity (PSR sort gate)” value is reported as “high polyreactivity”.
Regarding “QVQLVESGGGLVQAGGSLRLSCAASGRIFGRNAMGWYRQAPGKERELVAAISKSGTSTYYADSVKGRFTISRDNAKNTVYLQMNSLKPEDTAVYYCAAALPGYGDYYYWGQGTQVTVSS”, the “polyreactivity (PSR sort gate)” value is “high polyreactivity”.
As to “QVQLVESGGGLVQAGGSLRLSCAASGRIFGRNAMGWYRQAPGKERELVAAISRSGGSTYYADSVKGRFTISRDNAKNTVYLQMNSLKPEFTAVYYCAADVYRTWYWWFDYWGHGTQVTVSS”, the “polyreactivity (PSR sort gate)” value is “high polyreactivity”.
As for “QVQLVESGGGLVQAGGSLRLSCAASGRIFGRNAMGWYRQAPGKERELVAAISWRGGNTYYADSVKGRFTISRDNAKNTVYLQMNSLKPEDTAVYYCNTVQYRNEMGYWGQGTQVTVSS”, the “polyreactivity (PSR sort gate)” value is given as “high polyreactivity”.
